Measurements taken from patent publication US20260176621A1, “Metabolically Stabilized Carbohydrate Targeting Ligands For Oligonucleotide Conjugates” (Arrowhead Pharmaceuticals, Inc., priority 2023, published 2026).

How the values were obtained:
Type in all cases: in vivo, Cynomolgus monkey
PCSK9 [1] = experiment: Liver PCSK9 mRNA expression by qPCR of liver biopsies (Example 5); conditions: for Rel. Exp. PCSK9 (liver mRNA, qPCR, normalized to Day −6): 6.0 mg/kg SQ on Day 1
Description: (§1) On Day 1, three (n=3) male Cynomolgus monkey test animals for each test group were dosed with APOC3-PCSK9 RNAi agents formulated in saline (at 6.0 mg/kg), via subcutaneous (SQ) injection with syringe and needle in the mid-scapular region, at […] dose volume.
(§2) The liver biopsies and serum collected from the test animals were used for analysis for APOC3 and PCSK9 expression and additional biological parameters. Liver biopsies were collected on Day −6, Day 15, Day 36, Day 50, and Day 64 (post-mortem).
(§3) Liver biopsies were collected as a sedated procedure. Animals were fasted overnight (at least 12 hours but less than 18 hours) prior to each liver biopsy collection. For each animal, collected liver biopsy samples were of approximately 100 mg each (80 to 120 mg).
(§4) The collected liver biopsies were analyzed for APOC3 and PCSK9 expression and additional biological parameters. Liver APOC3 and PCSK9 mRNA expression levels were quantified via qPCR, using cARL1 as endogenous control gene, normalized to Day-6 (pre-dose).

APOC3 [2] = experiment: Liver APOC3 mRNA expression by qPCR of liver biopsies (Example 5); conditions: for Rel. Exp. APOC3 (liver mRNA, qPCR, normalized to Day −6): 6.0 mg/kg SQ on Day 1; for inhibition of liver APOC3 transcripts: single 6.0 mg/kg SQ on Day 1
Description: as §1, §2, §3, §4

APOC3 [3] = experiment: Serum APOC3 by Roche Cobas assay (Example 5); conditions: for APOC3 (serum): 6.0 mg/kg SQ on Day 1; for inhibition of serum APOC3 relative to Day −6: single 6.0 mg/kg SQ on Day 1
Description: as §1
(§5) Serum blood (approximately 5.0 mL) was collected on Day −6, Day 8, Day 15, Day 22, Day 29, Day 36, Day 43, Day 50, […], prior to liver biopsy sample collections or dose administration (when applicable), and from any animals found in moribund condition or sacrificed at an unscheduled interval. The collection site was the femoral vein, with a saphenous vein as an alternative collection site.
Serum APOC3 was quantified via Roche Cobas® assay for APOC3 in accordance with manufacturer's instructions.

PCSK9 [4] = experiment: Serum PCSK9 by ELISA (Example 5); conditions: for Rel. Exp. PCSK9 (serum, ELISA, normalized to pre-dose): 6.0 mg/kg SQ on Day 1; for inhibition of serum PCSK9: single 6.0 mg/kg SQ on Day 1
Description: as §1, §5
Serum PCSK9 was quantified via ELISA (R&D Systems, Cat. #DPC900) in accordance with manufacturer's instructions. The relative PCSK9 levels were normalized to pre-dose Day −6.

Molecule	Rel. Exp. PCSK9 (liver mRNA, qPCR, normalized to Day −6) (PCSK9 [1]; Day 15)	Rel. Exp. PCSK9 (liver mRNA, qPCR, normalized to Day −6) (PCSK9 [1]; Day 36)	Rel. Exp. PCSK9 (liver mRNA, qPCR, normalized to Day −6) (PCSK9 [1]; Day 50)	Rel. Exp. PCSK9 (liver mRNA, qPCR, normalized to Day −6) (PCSK9 [1]; Day 64)	Rel. Exp. PCSK9 (liver mRNA, qPCR, normalized to Day −6) (PCSK9 [1]; Day −6 (pre-dose baseline))	Rel. Exp. APOC3 (liver mRNA, qPCR, normalized to Day −6) (APOC3 [2]; Day 15)	Rel. Exp. APOC3 (liver mRNA, qPCR, normalized to Day −6) (APOC3 [2]; Day 36)	Rel. Exp. APOC3 (liver mRNA, qPCR, normalized to Day −6) (APOC3 [2]; Day 50)	Rel. Exp. APOC3 (liver mRNA, qPCR, normalized to Day −6) (APOC3 [2]; Day 64)	Rel. Exp. APOC3 (liver mRNA, qPCR, normalized to Day −6) (APOC3 [2]; Day −6 (pre-dose baseline))	APOC3 (serum) (APOC3 [3]; Day 1)	APOC3 (serum) (APOC3 [3]; Day 8)	APOC3 (serum) (APOC3 [3]; Day 15)	APOC3 (serum) (APOC3 [3]; Day 22)	APOC3 (serum) (APOC3 [3]; Day 29)	APOC3 (serum) (APOC3 [3]; Day 36)	APOC3 (serum) (APOC3 [3]; Day 43)	APOC3 (serum) (APOC3 [3]; Day 50)	APOC3 (serum) (APOC3 [3]; Day 57)	APOC3 (serum) (APOC3 [3]; Day 64)	other results
AC003791: APOC3-PCSK9 dimer RNAi agent conjugate with (NAG52)s ligand, SEQ ID NO 14-16 (nucleic acid, (NAG52)s ligand conjugate; modified_base 1 OTHER; 5'-cyclopropyl phosphonate-2'-O-methyladenosine; modified_base 1^2 OTHER; phosphorothioate linkage; modified_base 2 OTHER; 2'-fluoroadenosine; modified_base 2^3 OTHER; modified_base 3 gm; modified_base 4 um; modified_base 5 um; modified_base 6 OTHER; 2'-O-methyladenosine; modified_base 7 cm; modified_base 8 OTHER; modified_base; 5'-cyclopropyl phosphonate-2'-O-methyluridine; 2'-fluorocytidine; phosphor) chain 1: AAGUUACAAAAGCAAAACG chain 2: UCACUGAGAAUACUGUCCC chain 3: CGUUUUGCUUUUGUAACUUGGGACAGUAUUCUCAGUNA	0.692	0.908	1.271	0.351	1.000	0.408	0.611	0.336	0.500	1.000	6.48 mg/dL	4.57 mg/dL	4.03 mg/dL	2.92 mg/dL	3.69 mg/dL	2.96 mg/dL	3.18 mg/dL	3.32 mg/dL	4.56 mg/dL	4.65 mg/dL	inhibition of liver PCSK9 transcripts (PCSK9 [1]; Day 64, single 6.0 mg/kg SQ on Day 1): approximately 64%; inhibition of liver APOC3 transcripts (APOC3 [2]; Day 50): approximately 66%; inhibition of liver APOC3 transcripts (APOC3 [2]; Day 64): approximately 50%; inhibition of serum APOC3 relative to Day −6 (APOC3 [3]; Day 36 (nadir)): approximately 51%; inhibition of serum APOC3 relative to Day −6 (APOC3 [3]; Day 64): approximately 24%; APOC3 (serum) (APOC3 [3]; Day −6 (pre-dose baseline)): 6.15 mg/dL; Rel. Exp. PCSK9 (serum, ELISA, normalized to pre-dose) (PCSK9 [4]; Day 1): 1.161; Rel. Exp. PCSK9 (serum, ELISA, normalized to pre-dose) (PCSK9 [4]; Day 8): 0.682; Rel. Exp. PCSK9 (serum, ELISA, normalized to pre-dose) (PCSK9 [4]; Day 15): 0.415; Rel. Exp. PCSK9 (serum, ELISA, normalized to pre-dose) (PCSK9 [4]; Day 22): 0.339; Rel. Exp. PCSK9 (serum, ELISA, normalized to pre-dose) (PCSK9 [4]; Day 29): 0.353; inhibition of serum PCSK9 (PCSK9 [4]; Day 36 (nadir)): approximately 67%; Rel. Exp. PCSK9 (serum, ELISA, normalized to pre-dose) (PCSK9 [4]; Day 36): 0.323; Rel. Exp. PCSK9 (serum, ELISA, normalized to pre-dose) (PCSK9 [4]; Day 43): 0.375; Rel. Exp. PCSK9 (serum, ELISA, normalized to pre-dose) (PCSK9 [4]; Day 50): 0.759; Rel. Exp. PCSK9 (serum, ELISA, normalized to pre-dose) (PCSK9 [4]; Day 57): 0.431; Rel. Exp. PCSK9 (serum, ELISA, normalized to pre-dose) (PCSK9 [4]; Day 64): 0.538; inhibition of serum PCSK9 (PCSK9 [4]; Day 64): approximately 46%; Rel. Exp. PCSK9 (serum, ELISA, normalized to pre-dose) (PCSK9 [4]; Day −6 (pre-dose)): 0.925
AC005898: APOC3-PCSK9 dimer RNAi agent conjugate with (NAG52)s ligand, SEQ ID NO 17-19 (nucleic acid, (NAG52)s ligand conjugate; modified_base 1 OTHER; 5'-cyclopropyl phosphonate-2'-O-methyladenosine; modified_base 1^2 OTHER; phosphorothioate linkage; modified_base 2 OTHER; 2'-fluorocytidine; modified_base 2^3 OTHER; modified_base 3 OTHER; 2'-O-methyladenosine; modified_base 3^4 OTHER; modified_base 4 OTHER; 2'-fluoroadenosine; modified_base 5 OTHER; 5'-cyclopropyl phosphonate-2'-O-methyluridine; phosphor) chain 1: ACAAAAGCAAAACAGGUCC chain 2: UCACUGAGAAUACUGUCCC chain 3: GGACCUGUUUUGCUUUUGUGGGACAGUAUUCUCAGUNA	0.614	0.520	0.528	0.457	1.000	0.545	0.929	0.491	0.535	1.000	6.10 mg/dL	4.61 mg/dL	3.59 mg/dL	3.50 mg/dL	4.16 mg/dL	3.59 mg/dL	4.07 mg/dL	3.96 mg/dL	4.94 mg/dL	4.47 mg/dL	inhibition of serum APOC3 relative to Day −6 (APOC3 [3]; Day 22 (nadir)): approximately 40%; inhibition of serum APOC3 relative to Day −6 (APOC3 [3]; Day 64): approximately 23%; APOC3 (serum) (APOC3 [3]; Day −6 (pre-dose baseline)): 5.84 mg/dL; Rel. Exp. PCSK9 (serum, ELISA, normalized to pre-dose) (PCSK9 [4]; Day 1): 1.004; Rel. Exp. PCSK9 (serum, ELISA, normalized to pre-dose) (PCSK9 [4]; Day 8): 0.724; Rel. Exp. PCSK9 (serum, ELISA, normalized to pre-dose) (PCSK9 [4]; Day 15): 0.561; Rel. Exp. PCSK9 (serum, ELISA, normalized to pre-dose) (PCSK9 [4]; Day 22): 0.560; Rel. Exp. PCSK9 (serum, ELISA, normalized to pre-dose) (PCSK9 [4]; Day 29): 0.617; Rel. Exp. PCSK9 (serum, ELISA, normalized to pre-dose) (PCSK9 [4]; Day 36): 0.426; Rel. Exp. PCSK9 (serum, ELISA, normalized to pre-dose) (PCSK9 [4]; Day 43): 0.790; Rel. Exp. PCSK9 (serum, ELISA, normalized to pre-dose) (PCSK9 [4]; Day 50): 0.728; Rel. Exp. PCSK9 (serum, ELISA, normalized to pre-dose) (PCSK9 [4]; Day 57): 0.762; Rel. Exp. PCSK9 (serum, ELISA, normalized to pre-dose) (PCSK9 [4]; Day 64): 0.928; Rel. Exp. PCSK9 (serum, ELISA, normalized to pre-dose) (PCSK9 [4]; Day −6 (pre-dose)): 1.140
